Test results: PMC6044951

Substrate: O=c1ccn([C@@H]2O[C@H](CO[P@@](=O)(O)O[P@@](=O)(O)O[C@H]3O[C@H](CO)[C@@H](O)[C@H](O)[C@H]3O)[C@@H](O)[C@H]2O)c(=O)[nH]1
Test: purified protein
Details: 30 °C, Michaelis-Menten fit

B1: BcsA-BcsB (Cereibacter sphaeroides 2.4.1) (protein)
chain: MTVRAKARSPLRVVPVLLFLLWVALLVPFGLLAAAPVAPSAQGLIALSAVVLVALLKPFADKMVPRFLLLSAASMLVMRYWFWRLFETLPPPALDASFLFALLLFAVETFSISIFFLNGFLSADPTDRPFPRPLQPEELPTVDILVPSYNEPADMLSVTLAAAKNMIYPARLRTVVLCDDGGTDQRCMSPDPELAQKAQERRRELQQLCRELGVVYSTRERNEHAKAGNMSAALERLKGELVVVFDADHVPSRDFLARTVGYFVEDPDLFLVQTPHFFINPDPIQRNLALGDRCPPENEMFYGKIHRGLDRWGGAFFCGSAAVLRRRALDEAGGFAGETITEDAETALEIHSRGWKSLYIDRAMIAGLQPETFASFIQQRGRWATGMMQMLLLKNPLFRRGLGIAQRLCYLNSMSFWFFPLVRMMFLVAPLIYLFFGIEIFVATFEEVLAYMPGYLAVSFLVQNALFARQRWPLVSEVYEVAQAPYLARAIVTTLLRPRSARFAVTAKDETLSENYISPIYRPLLFTFLLCLSGVLATLVRWVAFPGDRSVLLVVGGWAVLNVLLVGFALRAVAEKQQRRAAPRVQMEVPAEAQIPAFGNRSLTATVLDASTSGVRLLVRLPGVGDPHPALEAGGLIQFQPKFPDAPQLERMVRGRIRSARREGGTVMVGVIFEAGQPIAVRETVAYLIFGESAHWRTMREATMRPIGLLHGMARILWMAAASLPKTARDFMDEPARRRRRHEEPKEKQAHLLAFGTDFSTEPDWAGELLDPTAQVSARPNTVAWGSN
**Q.** With B1 as the protein, how does the Km read?
**A.** Its Km is 340 ± 70 µM.

**Q.** And the kcat?
**A.** The kcat was 0.43 ± 0.17 s⁻¹.
